# Patent US20260034230A1 (Regeneron, published 2026)
# Where a chain is given by its changes, count along the chain named.
# B1: 12808B anti-hTfR monoclonal antibody (bivalent IgG1) (antibody, V domains shown)
# VH: QLQLQESGPGLVKPSETLSLTCTVSGESISSNTYYWGWIRQPPGKGLEWIGSIDYSGTTNYNPSLKSRVTISVDTSRNHFSLRLRSVTAADTAVYYCAREWGNYGYYYGMDVWGQGTTVTVSS
# VL: DIQMTQSPSSLSASVGDRVTINCRASQGIRNDLGWYQQKPGKAPKRLIYAASSLQSGVPLRFSGSGSGTEFTLTINNLQPEDFATYYCLSHNSYPWTFGQGTKVEIKR
# notes: hIgG1/kappa
# B2: 12847B anti-hTfR monoclonal antibody (bivalent IgG1) (antibody, V domains shown)
# VH: EVQLVESGGGLVQPGRSLRLSCAASGFTFDDYAMNWVRQAPGKGLEWVSGISWSSGSMDYADSVKGRFTISRDNAKNSLYLQMNSLRTEDTALYYCAKAREVGDYYGMDVWGQGTTVTVSS
# VL: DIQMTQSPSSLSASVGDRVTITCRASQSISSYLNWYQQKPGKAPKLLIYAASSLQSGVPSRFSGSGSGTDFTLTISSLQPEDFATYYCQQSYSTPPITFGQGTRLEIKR
# notes: hIgG1/kappa; also called H1H12847B; REGN17514
# B3: 12802B anti-hTfR monoclonal antibody (bivalent IgG1) (antibody, V domains shown)
# VH: QVQLVESGGGLVKPGGSLRLSCAASGFTFSDYFMSWIRQAPGKGLEWVSYISSTGSTINYADSVKGRFTISRDNVKNSLYLQMTSLRVEDTAVYYCTRDNWNYEYWGQGTLVTVSS
# VL: EIVMTQSPATLSVSPGERATLSCRASQSVSINLAWYQQKPGQAPRLLIFVASTRATGIPARFSGSGSGTEFTLTISSLQSEDFATYYCQQYDIWPYTFGQGTKLEIKR
# notes: hIgG1/kappa
# B4: 12799B anti-hTfR monoclonal antibody (bivalent IgG1) (antibody, V domains shown)
# VH: QITLKESGPTLVKPTQTLTLTCTFSGFSLSTSGVGVVWIRQPPGKALEWLALIYWNDHKRYSPSLGSRLTITKDTSKNQVVLTMTNMDPVDTATYYCAHYSGSYSYYYYGLDVWGQGTTVTVSS
# VL: DIQMTQSPSSVSASVGDRVTITCRASQGIASWLAWYQQKPGKAPELLIYAASSLQGGVPSRFSGSGSGTDFTLTISSLQPEDFAIYYCQQANYFPWTFGQGTKVEIKR
# notes: hIgG1/kappa; also called H1H12799B; REGN17508
# B5: 12843B anti-hTfR monoclonal antibody (bivalent IgG1) (antibody, V domains shown)
# VH: EVQLVESGGGLVQPGGSLRLSCAASGFTFNIFEMNWVRQAPGKGLEWISYISSRGTTTYYADSVRGRFTISRDNAKNSLYLQMNSLRAEDTAVYYCARDYEATIPFDFWGQGTLVTVSS
# VL: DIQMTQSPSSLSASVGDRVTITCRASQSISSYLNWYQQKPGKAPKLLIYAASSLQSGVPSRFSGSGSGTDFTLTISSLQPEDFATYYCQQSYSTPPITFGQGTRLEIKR
# notes: hIgG1/kappa; also called H1H12843B; REGN17512
# B6: 12798B anti-hTfR monoclonal antibody (bivalent IgG1) (antibody, V domains shown)
# VH: EVQLVESGGDLVQPGRSLRLSCAASGFTFDDYAMHWVRQAPGKGLEWVSGISWNSATRVYADSVKGRFTISRDNAKNFLYLQMNSLRSEDTALYHCAKDMDISLGYYGLDVWGQGTTVTVSS
# VL: not shown
# notes: hIgG1/kappa; also called H1H12798B; REGN17507
# B7: 69348 anti-hTfR monoclonal antibody (bivalent IgG1) (antibody, V domains shown)
# VH: QVQLVESGGGVVQPGRSLRLSCAASGFTFTTYGMHWVRQAPGKGLEWVAVIWYDGSNKYYGDSVKGRFTISRDNSKNTLYLQMNSLRVDDTAVYYCTRTHGYTRSSDGFDYWGQGTLVTVSS
# VL: DIQMTQSPSSLSASVGDRVTITCRASQSIRNVLGWFQQKPGKAPQRLIYAASSLQSGVPSRFSGSGSGTEFTLTISSLQPEDFATYYCLQHNFYPLTFGGGTKVEIKR
# notes: hIgG1/kappa
# B8: 12795B anti-hTfR monoclonal antibody (bivalent IgG1) (antibody, V domains shown)
# VH: EVQLVESGGGLVQPGGSLRLSCATSGFTFTSYDMKWVRQAPGLGLEWVSAISGSGGNTYYADSVKGRFTISRDNSRNTLYLQMNSLRAEDTAVYYCTRSHDFGAFDYFDYWGQGTLVTVSS
# VL: B7 VL with S28G, N31D, V32H, L33F, F36Y, Q45K, Q55H, H91Y, N92D, F93T
# notes: hIgG1/kappa
# B9: 12801B anti-hTfR monoclonal antibody (bivalent IgG1) (antibody, V domains shown)
# VH: EVQLLESGGALVQPGGSLRLSCAASGFTFTSYAMHWVRQAPGKGLEWVSSIRGSGGGTYSADSVKGRFTISRDNSRDTLYLQMNSVRAEDTAVYYCARSHDYGAFDFFDYWGQGTLVTVSS
# VL: B7 VL with S28G, N31T, V32D, F36Y, Q45K, Q79R, Y86F, H91Y, F93S
# notes: hIgG1/kappa
# B10: 12844B anti-hTfR monoclonal antibody (bivalent IgG1) (antibody, V domains shown)
# VH: EVQLVESGGSVVRPGGSLRLSCEASGFTFDDYGMSWVRQDPGKGLEWVSGINWNGDRTNYADSVKGRFIISRDNAKNSVYLQMNSLRAEDSALYHCARDQGLGVAATLDYWGQGTLVTVSS
# VL: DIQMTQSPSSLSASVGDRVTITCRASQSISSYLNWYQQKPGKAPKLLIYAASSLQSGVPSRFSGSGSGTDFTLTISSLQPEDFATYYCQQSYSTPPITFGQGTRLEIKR
# notes: hIgG1/kappa
# B11: 12848B anti-hTfR monoclonal antibody (bivalent IgG1) (antibody, V domains shown)
# VH: EVQLVESGGGLVQPGRSLTLSCAASGFTFDNFGMHWVRQGPGKGLEWVSGLTWNSGVIGYADSVKGRFTISRDNAKNSLYLQMNSLRPEDTALYYCAKDIRNYGPFDYWGQGTLVTVSS
# VL: not shown
# notes: hIgG1/kappa; also called H1H12848B; REGN17515
# B12: 12835B anti-hTfR monoclonal antibody (bivalent IgG1) (antibody, V domains shown)
# VH: EVQLVESGGGLIQPGGSLRLSCEASGFTFRNYEMNWVRQAPGKGLEWVSYISSSGNMKDYAESVKGRFTISRDNVKNSLQLQMNSLRVEDTAVYYCARDEFPYGMDVWGQGTTVTVSS
# VL: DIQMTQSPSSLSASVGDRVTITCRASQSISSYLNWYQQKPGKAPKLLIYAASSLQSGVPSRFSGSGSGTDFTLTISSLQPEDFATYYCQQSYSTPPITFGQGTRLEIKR
# notes: hIgG1/kappa; also called H1H12835B; REGN17509
# Biological target: T1, REGN2431 (hmm.hTfRC): monomeric human Tfrc ectodomain (C89-F760) with N-terminal hexahistidine-myc-myc tag (human, UniProt P02786 89-760)
# T1 construct: also called hmm.hTfR(C89-F763); hTFR-mmh
# Assay: SPR Biacore, IgG captured by anti-hFc, 25 C
# Experimental: (§1) Biacore binding kinetics assays were conducted for the interaction of 32 anti-human TfR IgG1 monoclonal antibodies from CHO supernatants with TfR reagents at 25° C.
# (§2) Equilibrium dissociation constants (KD) for the interaction of anti-TfR monoclonal antibodies with human and fascicularis monkey TfR ecto domain recombinant proteins were determined using a real-time surface plasmon resonance (SPR) based Biacore S200 biosensor. All binding studies were performed in 10 mM HEPES, 150 mM NaCl, 3 mM EDTA, and 0.05% v/v surfactant Tween-20, pH 7.4 (HBS-EP) running buffer at […]. The Biacore CM5 sensor surface was first derivatized by amine coupling with a monoclonal mouse anti-human Fc antibody (REGN2567) followed by a step to capture anti-TfR monoclonal antibodies in CHO conditioned media. […] The dissociation of TfR bound to anti-TfR monoclonal antibodies was monitored for 3 minutes in HBS-EP running buffer. At the end of each cycle, the anti-TfR monoclonal antibodies capture surface was regenerated using a 12-see injection of 20 mM H₃PO₄. The association rate (ka) and dissociation rate (kd) were determined by fitting the real-time binding sensorgrams to a 1:1 binding model with mass transport limitation using Scrubber 2.0c software. The dissociation equilibrium constant (KD) and dissociative half-life (t %) were calculated from the kinetic rate constants as: […]
# T1 sequence (P02786 other isoform, or with tags, fused parts or gaps): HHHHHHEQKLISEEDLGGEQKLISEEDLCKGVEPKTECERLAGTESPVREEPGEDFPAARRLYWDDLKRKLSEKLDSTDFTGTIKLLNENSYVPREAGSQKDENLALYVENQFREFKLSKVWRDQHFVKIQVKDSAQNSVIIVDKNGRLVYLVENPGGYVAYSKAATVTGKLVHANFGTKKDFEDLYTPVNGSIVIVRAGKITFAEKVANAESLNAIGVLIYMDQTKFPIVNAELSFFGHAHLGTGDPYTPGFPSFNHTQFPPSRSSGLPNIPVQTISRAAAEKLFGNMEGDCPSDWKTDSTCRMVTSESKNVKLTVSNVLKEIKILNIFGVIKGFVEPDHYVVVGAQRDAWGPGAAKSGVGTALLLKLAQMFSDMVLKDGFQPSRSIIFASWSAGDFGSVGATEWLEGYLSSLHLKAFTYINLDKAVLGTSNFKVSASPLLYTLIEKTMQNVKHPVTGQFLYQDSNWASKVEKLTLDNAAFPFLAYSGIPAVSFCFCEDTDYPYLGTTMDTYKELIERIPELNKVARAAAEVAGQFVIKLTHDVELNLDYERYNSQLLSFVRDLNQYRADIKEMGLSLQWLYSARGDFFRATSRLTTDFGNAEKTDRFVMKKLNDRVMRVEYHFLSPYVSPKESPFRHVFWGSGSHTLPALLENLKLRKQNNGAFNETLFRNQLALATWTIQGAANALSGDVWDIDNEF
row,t1/2 [h],Binder
1,1.81,B1
2,1.13,B2
3,6.59,B3
4,2.91,B4
5,1.15,B5
6,3.04,B6
7,1.12,B7
8,> 19.2,B8
9,4.6,B9
10,1.58,B10
11,3.86,B11
12,0.462,B12

# Biological target: T2, REGN2054 (mf TFRC ecto-mmh): monomeric monkey (cyno) Tfrc ectodomain (C89-F760) with C-terminal … (monkey (cyno, Macaca fascicularis), UniProt H9EXL1 89-760)
# T2 construct: range 89-760; also called mfTFR-mmh; mfTfR-mmh
# Assay: SPR Biacore, IgG captured by anti-hFc, 25 C
# Experimental: as §1, §2
# T2 sequence (chain, as listed by the source): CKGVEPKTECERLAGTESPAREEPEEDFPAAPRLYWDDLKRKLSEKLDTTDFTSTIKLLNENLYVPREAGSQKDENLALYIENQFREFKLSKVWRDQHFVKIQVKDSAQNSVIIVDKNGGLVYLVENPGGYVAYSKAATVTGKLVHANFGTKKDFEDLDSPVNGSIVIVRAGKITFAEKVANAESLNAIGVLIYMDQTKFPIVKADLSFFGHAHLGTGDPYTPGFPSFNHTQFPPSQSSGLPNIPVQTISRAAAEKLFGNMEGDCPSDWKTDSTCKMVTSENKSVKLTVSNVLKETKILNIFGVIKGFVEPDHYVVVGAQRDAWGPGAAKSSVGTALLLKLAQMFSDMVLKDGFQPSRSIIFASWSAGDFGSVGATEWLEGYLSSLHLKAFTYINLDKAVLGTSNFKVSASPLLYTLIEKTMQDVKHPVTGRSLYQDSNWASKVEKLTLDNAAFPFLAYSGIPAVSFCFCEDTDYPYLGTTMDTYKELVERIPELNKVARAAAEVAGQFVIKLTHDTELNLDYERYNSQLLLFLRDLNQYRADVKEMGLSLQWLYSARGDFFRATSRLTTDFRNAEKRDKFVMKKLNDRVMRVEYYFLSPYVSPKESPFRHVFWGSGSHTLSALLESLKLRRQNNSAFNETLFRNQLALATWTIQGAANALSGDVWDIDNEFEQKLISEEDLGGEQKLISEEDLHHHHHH
row,t1/2 [h],Binder
1,0.425,B1
2,0.578,B2
3,0.363,B3
4,1.19,B4
5,0.163,B5
6,0.15,B6
7,0.418,B7
8,2.7,B8
9,0.295,B9
10,0.262,B10
11,0.2,B11
12,0.115,B12
